Experimental data from article PMC6502868, “Architecture of Saccharomyces cerevisiae SAGA complex” (Cell Discovery, 2019).

T1: Spt7 (S. cerevisiae, UniProt P35177 1-1332)
T1 construct: Spt7, S. cerevisiae, second largest SAGA subunit (SPT module); source: endogenous, in the native SAGA complex purified from fermented S. cerevisiae cells
T1 sequence (looked up): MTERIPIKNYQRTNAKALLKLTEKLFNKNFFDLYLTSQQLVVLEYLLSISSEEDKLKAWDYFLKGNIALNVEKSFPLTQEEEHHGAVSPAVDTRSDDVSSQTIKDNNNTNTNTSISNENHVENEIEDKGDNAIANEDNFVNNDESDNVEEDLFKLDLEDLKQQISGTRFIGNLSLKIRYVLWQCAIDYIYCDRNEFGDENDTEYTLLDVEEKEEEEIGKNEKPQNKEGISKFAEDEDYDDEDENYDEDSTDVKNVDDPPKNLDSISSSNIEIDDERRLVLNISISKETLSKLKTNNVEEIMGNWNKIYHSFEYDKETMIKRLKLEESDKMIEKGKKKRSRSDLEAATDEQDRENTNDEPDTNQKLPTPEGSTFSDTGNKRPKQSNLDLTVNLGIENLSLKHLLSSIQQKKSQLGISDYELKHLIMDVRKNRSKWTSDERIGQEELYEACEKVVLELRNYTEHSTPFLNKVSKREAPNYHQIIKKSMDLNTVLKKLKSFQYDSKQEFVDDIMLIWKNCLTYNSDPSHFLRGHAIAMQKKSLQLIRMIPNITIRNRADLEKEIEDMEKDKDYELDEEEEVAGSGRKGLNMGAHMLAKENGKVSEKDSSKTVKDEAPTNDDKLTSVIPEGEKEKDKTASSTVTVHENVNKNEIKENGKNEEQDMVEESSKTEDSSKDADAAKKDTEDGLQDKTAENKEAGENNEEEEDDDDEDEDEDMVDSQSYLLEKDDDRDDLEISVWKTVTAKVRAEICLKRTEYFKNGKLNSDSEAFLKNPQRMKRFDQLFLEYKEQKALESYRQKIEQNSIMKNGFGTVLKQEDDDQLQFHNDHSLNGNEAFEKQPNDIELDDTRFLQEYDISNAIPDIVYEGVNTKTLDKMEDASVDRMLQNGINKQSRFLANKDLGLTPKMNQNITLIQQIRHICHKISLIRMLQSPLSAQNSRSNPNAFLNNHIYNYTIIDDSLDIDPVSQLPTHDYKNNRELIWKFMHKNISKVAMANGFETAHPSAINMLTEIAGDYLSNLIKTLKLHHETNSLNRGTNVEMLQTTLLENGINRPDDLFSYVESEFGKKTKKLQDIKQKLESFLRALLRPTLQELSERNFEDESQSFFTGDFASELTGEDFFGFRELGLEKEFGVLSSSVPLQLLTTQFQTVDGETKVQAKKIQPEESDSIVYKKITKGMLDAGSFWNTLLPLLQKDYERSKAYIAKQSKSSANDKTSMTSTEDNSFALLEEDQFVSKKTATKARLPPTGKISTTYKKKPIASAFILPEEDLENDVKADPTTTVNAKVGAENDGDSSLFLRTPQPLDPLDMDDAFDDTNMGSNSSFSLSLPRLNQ

B1: Taf9 (natural protein, S. cerevisiae, UniProt Q05027 1-157, looked up)
chain: MNGGGKNVLNKNSVGSVSEVGPDSTQEETPRDVRLLHLLLASQSIHQYEDQVPLQLMDFAHRYTQGVLKDALVYNDYAGSGNSAGSGLGVEDIRLAIAARTQYQFKPTAPKELMLQLAAERNKKALPQVMGTWGVRLPPEKYCLTAKEWDLEDPKSM
notes: Taf9, S. cerevisiae, SAGA subunit (TAF module); source: endogenous, in the native SAGA complex purified from fermented S. cerevisiae cells
B2: Spt20 (natural protein, S. cerevisiae, UniProt P50875 1-604, looked up)
chain: MSANSPTGNDPHVFGIPVNATPSNMGSPGSPVNVPPPMNPAVANVNHPVMRTNSNSNANEGTRTLTREQIQQLQQRQRLLLQQRLLEQQRKQQALQNYEAQFYQMLMTLNKRPKRLYNFVEDADSILKKYEQYLHSFEFHIYENNYKICAPANSRLQQQQKQPELTSDGLILTKNNETLKEFLEYVARGRIPDAIMEVLRDCNIQFYEGNLILQVYDHTNTVDVTPKENKPNLNSSSSPSNNNSTQDNSKIQQPSEPNSGVANTGANTANKKASFKRPRVYRTLLKPNDLTTYYDMMSYADNARFSDSIYQQFESEILTLTKRNLSLSVPLNPYEHRDMLEETAFSEPHWDSEKKSFIHEHRAESTREGTKGVVGHIEERDEFPQHSSNYEQLMLIMNERTTTITNSTFAVSLTKNAMEIASSSSNGVRGASSSTSNSASNTRNNSLANGNQVALAAAAAAAAVGSTMGNDNNQFSRLKFIEQWRINKEKRKQQALSANINPTPFNARISMTAPLTPQQQLLQRQQQALEQQQNGGAMKNANKRSGNNATSNNNNNNNNLDKPKVKRPRKNAKKSESGTPAPKKKRMTKKKQSASSTPSSTTMS
notes: Spt20, S. cerevisiae, SAGA subunit (SPT module); source: endogenous, in the native SAGA complex purified from fermented S. cerevisiae cells
B3: Ada1 (natural protein, S. cerevisiae, UniProt Q12060 1-488, looked up)
chain: MSAIQSPAPKPLQPTYPAASPASTNAYMKPGLIGSPAVSNHTEPNNGNNETAEPQGPNQRIDLGAMIEELTSLLGKESWTKYAQIISLFILGKLSRKELSNELELVFSPSAASLEKSNTNHHHSLVRLHNQLLLGIFANSLRENPLGRNGNESSWGFGNGSNNPNNKLKRINKHNSQIEVYKKIVMSLPLNDRNRLKMITKEAGKRGFIFCSVFQARLNNIPKIPIVTNPESLKRVKSNNLKTPLEWSQDIMNGFNVPLASESHSLPDTDSFYLRMVGIAREHGLVGTVDARCVELISLALDQYLKNIIEFTIDTVRYRRKKYSDYYDLNESGLYKSVSEMAADKRDAKIKQLDDDKNEDECADEAKSINNGNNSSKDDIGDISMSSITKAGEAVNEELHENRTISLTNEDIYDSLSIFPNLVEPSGSYYALTNLGLVNDDELVDMKSNIDDLPDFLNEKPTFTPLDERNVGTRHELNWLIKGILTED
notes: Ada1, S. cerevisiae, SAGA subunit (SPT module); source: endogenous, in the native SAGA complex purified from fermented S. cerevisiae cells
B4: Ada3 (natural protein, S. cerevisiae, UniProt P32494 1-702, looked up)
chain: MPRHGRRGKLPKGEKLPKKEGGDNTPSKLLSSMLKTLDLTFERDIGMLNGKSVRSIPNKKTLLELQSQLDSLNEILGTIARGDQETIEALRKIRDSKNEKQANDEKQETSNADGQHESSTATEETNIIDKGVQSPPKPPPSNEISGTIENDVESIKQAADNMAKEEINEDKDLQVHRDQPREKRPFDSETENRATENENTQRPDNKKQKIDVDKMENDPTVKNPKSEFVVSQTLPRAAAALGLFNEEGLESTGEDFLKKKYNVASYPTNDLKDLLPGELPDMDFSHPKPTNQIQFNTFLAFVENFFKDLSDDNLKFLKMKYIIPDSLQFDKTYDPEVNPFIIPKLGPLYTDVWFKDENDKNSAYKKPSPYSNDASTILPKKSANELDDNALESGSISCGPLLSRLLSAVLKDDNDKSELQSSKIIRDGGLPRTGGEDDIQSFRNNNNDTVDMTLSQENGPSVQTPDNDIDEEASFQAKLAENKGSNGGTTSTLPQQIGWITNGINLDYPTFEERLKRELKYVGIYMNLPKDENNPNSDDPDWVTGREDDEISAELRELQGTLKQVTKKNQKRKAQLIPLVERQLAWQEYSSILEDLDKQIDQAYVKRIRVPKKRKKHHTAASNNVNTGTTSQIAQQKAANSSLKSLLDKRQRWINKIGPLFDKPEIMKRIPNESVFKDMDQEEDEDEADVFAQNTNKDVELN
notes: Ada3, S. cerevisiae, SAGA subunit (HAT module); source: endogenous, in the native SAGA complex purified from fermented S. cerevisiae cells
B5: Ada2 (natural protein, S. cerevisiae, UniProt Q02336 1-434, looked up)
chain: MSNKFHCDVCSADCTNRVRVSCAICPEYDLCVPCFSQGSYTGKHRPYHDYRIIETNSYPILCPDWGADEELQLIKGAQTLGLGNWQDIADHIGSRGKEEVKEHYLKYYLESKYYPIPDITQNIHVPQDEFLEQRRHRIESFRERPLEPPRKPMASVPSCHEVQGFMPGRLEFETEFENEAEGPVKDMVFEPDDQPLDIELKFAILDIYNSRLTTRAEKKRLLFENHLMDYRKLQAIDKKRSKEAKELYNRIKPFARVMTAQDFEEFSKDILEELHCRARIQQLQEWRSNGLTTLEAGLKYERDKQARISSFEKFGASTAASLSEGNSRYRSNSAHRSNAEYSQNYSENGGRKKNMTISDIQHAPDYALLSNDEQQLCIQLKILPKPYLVLKEVMFRELLKTGGNLSKSACRELLNIDPIKANRIYDFFQSQNWM
notes: Ada2, S. cerevisiae, SAGA subunit (HAT module); source: endogenous, in the native SAGA complex purified from fermented S. cerevisiae cells
B6: Taf6 (natural protein, S. cerevisiae, UniProt P53040 1-516, looked up)
chain: MSTQQQSYTIWSPQDTVKDVAESLGLENINDDVLKALAMDVEYRILEIIEQAVKFKRHSKRDVLTTDDVSKALRVLNVEPLYGYYDGSEVNKAVSFSKVNTSGGQSVYYLDEEEVDFDRLINEPLPQVPRLPTFTTHWLAVEGVQPAIIQNPNLNDIRVSQPPFIRGAIVTALNDNSLQTPVTSTTASASVTDTGASQHLSNVKPGQNTEVKPLVKHVLSKELQIYFNKVISTLTAKSQADEAAQHMKQAALTSLRTDSGLHQLVPYFIQFIAEQITQNLSDLQLLTTILEMIYSLLSNTSIFLDPYIHSLMPSILTLLLAKKLGGSPKDDSPQEIHEFLERTNALRDFAASLLDYVLKKFPQAYKSLKPRVTRTLLKTFLDINRVFGTYYGCLKGVSVLEGESIRFFLGNLNNWARLVFNESGITLDNIEEHLNDDSNPTRTKFTKEETQILVDTVISALLVLKKDLPDLYEGKGEKVTDEDKEKLLERCGVTIGFHILKRDDAKELISAIFFGE
notes: Taf6, S. cerevisiae, SAGA subunit (TAF module), ~58 kDa as printed; source: endogenous, in the native SAGA complex purified from fermented S. cerevisiae cells
B7: Spt8 (natural protein, S. cerevisiae, UniProt P38915 1-602, looked up)
chain: MDEVDDILINNQVVDDEEDDEEMLSGLENDSKQDLEGNDDGGEDEEDDDDDDEDDDDDEDEREDDDEQEDDDGEDDAARMDKTATPTNEHQHDEQKAAAAGAGGAGDSGDAVTKIGSEDVKLSDVDGGVGSREASSSTHEASANGEVYEYYKHMLNAAQIADSYNIYPTAAIPIQTHVNALAVSRGLKYLFLGGSDGYIRKYDLLNTLEGKLSLTILQKHSLAESIQNAGILQSYWENEIPQKKSEMKLSANKTDYEPKVSPVHSLEVQSECLFILSGLQNGGITMQGVRYMEGSIAHYFKGRNGHTQIVNILRLNGQEDRFLSGSWDKRLLEWDLQTGDIVNEFKKSRSELSSLEMRPLYSSVDVSGNVNSGKENENADDDMDSLFGDEDEDEKQDAGNEPVETGDGSNGEENKEQISEESLNIVYDESVFMTSGLNGSVHIWDRRMTQSPALSLERGAGVPPWCLSACWGVDGDHVYAGRRNACVEQFDLKMPSKPIHNLKLPSISGPVSCVKAMPNNKHLLCASRDNIRLYNVEIAVDASNSTTKSSKVPFLIVPGHHGGIISNLYLDPTSRFIISTSGNRGWQGNSTDTTLIYDIDLE
notes: Spt8, S. cerevisiae, SAGA subunit (SPT module), ~66.2 kDa as printed; source: endogenous, in the native SAGA complex purified from fermented S. cerevisiae cells
B8: Taf5 (natural protein, S. cerevisiae, UniProt P38129 1-798, looked up)
chain: MSQKQSTNQNQNGTHQPQPVKNQRTNNAAGANSGQQPQQQSQGQSQQQGRSNGPFSASDLNRIVLEYLNKKGYHRTEAMLRAESGRTLTPQNKQSPANTKTGKFPEQSSIPPNPGKTAKPISNPTNLSSKRDAEGGIVSSGRLEGLNAPENYIRAYSMLKNWVDSSLEIYKPELSYIMYPIFIYLFLNLVAKNPVYARRFFDRFSPDFKDFHGSEINRLFSVNSIDHIKENEVASAFQSHKYRITMSKTTLNLLLYFLNENESIGGSLIISVINQHLDPNIVESVTAREKLADGIKVLSDSENGNGKQNLEMNSVPVKLGPFPKDEEFVKEIETELKIKDDQEKQLNQQTAGDNYSGANNRTLLQEYKAMNNEKFKDNTGDDDKDKIKDKIAKDEEKKESELKVDGEKKDSNLSSPARDILPLPPKTALDLKLEIQKVKESRDAIKLDNLQLALPSVCMYTFQNTNKDMSCLDFSDDCRIAAAGFQDSYIKIWSLDGSSLNNPNIALNNNDKDEDPTCKTLVGHSGTVYSTSFSPDNKYLLSGSEDKTVRLWSMDTHTALVSYKGHNHPVWDVSFSPLGHYFATASHDQTARLWSCDHIYPLRIFAGHLNDVDCVSFHPNGCYVFTGSSDKTCRMWDVSTGDSVRLFLGHTAPVISIAVCPDGRWLSTGSEDGIINVWDIGTGKRLKQMRGHGKNAIYSLSYSKEGNVLISGGADHTVRVWDLKKATTEPSAEPDEPFIGYLGDVTASINQDIKEYGRRRTVIPTSDLVASFYTKKTPVFKVKFSRSNLALAGGAFRP
notes: Taf5, S. cerevisiae, SAGA subunit (TAF module); source: endogenous, in the native SAGA complex purified from fermented S. cerevisiae cells

target: T2, Tra1 (S. cerevisiae, UniProt P38811 1-3744); experiment: cross-linking; chemical cross-linking of proteins coupled with mass spectrometry (CXMS) on the purified native SAGA complex; 139 unique inter- and 184 unique intra-subunit cross-linking pairs; details: both partners purified
T2 construct: Tra1, S. cerevisiae, largest SAGA subunit (SPT module), 3744 residues as printed; Endogenous subunit; Purification methods and any tag are in the Supplementary Materials; also called Tra1_(SAGA); lobe A; source: endogenous, in the native SAGA complex purified from fermented S. cerevisiae cells
T2 sequence (P38811 whole entry): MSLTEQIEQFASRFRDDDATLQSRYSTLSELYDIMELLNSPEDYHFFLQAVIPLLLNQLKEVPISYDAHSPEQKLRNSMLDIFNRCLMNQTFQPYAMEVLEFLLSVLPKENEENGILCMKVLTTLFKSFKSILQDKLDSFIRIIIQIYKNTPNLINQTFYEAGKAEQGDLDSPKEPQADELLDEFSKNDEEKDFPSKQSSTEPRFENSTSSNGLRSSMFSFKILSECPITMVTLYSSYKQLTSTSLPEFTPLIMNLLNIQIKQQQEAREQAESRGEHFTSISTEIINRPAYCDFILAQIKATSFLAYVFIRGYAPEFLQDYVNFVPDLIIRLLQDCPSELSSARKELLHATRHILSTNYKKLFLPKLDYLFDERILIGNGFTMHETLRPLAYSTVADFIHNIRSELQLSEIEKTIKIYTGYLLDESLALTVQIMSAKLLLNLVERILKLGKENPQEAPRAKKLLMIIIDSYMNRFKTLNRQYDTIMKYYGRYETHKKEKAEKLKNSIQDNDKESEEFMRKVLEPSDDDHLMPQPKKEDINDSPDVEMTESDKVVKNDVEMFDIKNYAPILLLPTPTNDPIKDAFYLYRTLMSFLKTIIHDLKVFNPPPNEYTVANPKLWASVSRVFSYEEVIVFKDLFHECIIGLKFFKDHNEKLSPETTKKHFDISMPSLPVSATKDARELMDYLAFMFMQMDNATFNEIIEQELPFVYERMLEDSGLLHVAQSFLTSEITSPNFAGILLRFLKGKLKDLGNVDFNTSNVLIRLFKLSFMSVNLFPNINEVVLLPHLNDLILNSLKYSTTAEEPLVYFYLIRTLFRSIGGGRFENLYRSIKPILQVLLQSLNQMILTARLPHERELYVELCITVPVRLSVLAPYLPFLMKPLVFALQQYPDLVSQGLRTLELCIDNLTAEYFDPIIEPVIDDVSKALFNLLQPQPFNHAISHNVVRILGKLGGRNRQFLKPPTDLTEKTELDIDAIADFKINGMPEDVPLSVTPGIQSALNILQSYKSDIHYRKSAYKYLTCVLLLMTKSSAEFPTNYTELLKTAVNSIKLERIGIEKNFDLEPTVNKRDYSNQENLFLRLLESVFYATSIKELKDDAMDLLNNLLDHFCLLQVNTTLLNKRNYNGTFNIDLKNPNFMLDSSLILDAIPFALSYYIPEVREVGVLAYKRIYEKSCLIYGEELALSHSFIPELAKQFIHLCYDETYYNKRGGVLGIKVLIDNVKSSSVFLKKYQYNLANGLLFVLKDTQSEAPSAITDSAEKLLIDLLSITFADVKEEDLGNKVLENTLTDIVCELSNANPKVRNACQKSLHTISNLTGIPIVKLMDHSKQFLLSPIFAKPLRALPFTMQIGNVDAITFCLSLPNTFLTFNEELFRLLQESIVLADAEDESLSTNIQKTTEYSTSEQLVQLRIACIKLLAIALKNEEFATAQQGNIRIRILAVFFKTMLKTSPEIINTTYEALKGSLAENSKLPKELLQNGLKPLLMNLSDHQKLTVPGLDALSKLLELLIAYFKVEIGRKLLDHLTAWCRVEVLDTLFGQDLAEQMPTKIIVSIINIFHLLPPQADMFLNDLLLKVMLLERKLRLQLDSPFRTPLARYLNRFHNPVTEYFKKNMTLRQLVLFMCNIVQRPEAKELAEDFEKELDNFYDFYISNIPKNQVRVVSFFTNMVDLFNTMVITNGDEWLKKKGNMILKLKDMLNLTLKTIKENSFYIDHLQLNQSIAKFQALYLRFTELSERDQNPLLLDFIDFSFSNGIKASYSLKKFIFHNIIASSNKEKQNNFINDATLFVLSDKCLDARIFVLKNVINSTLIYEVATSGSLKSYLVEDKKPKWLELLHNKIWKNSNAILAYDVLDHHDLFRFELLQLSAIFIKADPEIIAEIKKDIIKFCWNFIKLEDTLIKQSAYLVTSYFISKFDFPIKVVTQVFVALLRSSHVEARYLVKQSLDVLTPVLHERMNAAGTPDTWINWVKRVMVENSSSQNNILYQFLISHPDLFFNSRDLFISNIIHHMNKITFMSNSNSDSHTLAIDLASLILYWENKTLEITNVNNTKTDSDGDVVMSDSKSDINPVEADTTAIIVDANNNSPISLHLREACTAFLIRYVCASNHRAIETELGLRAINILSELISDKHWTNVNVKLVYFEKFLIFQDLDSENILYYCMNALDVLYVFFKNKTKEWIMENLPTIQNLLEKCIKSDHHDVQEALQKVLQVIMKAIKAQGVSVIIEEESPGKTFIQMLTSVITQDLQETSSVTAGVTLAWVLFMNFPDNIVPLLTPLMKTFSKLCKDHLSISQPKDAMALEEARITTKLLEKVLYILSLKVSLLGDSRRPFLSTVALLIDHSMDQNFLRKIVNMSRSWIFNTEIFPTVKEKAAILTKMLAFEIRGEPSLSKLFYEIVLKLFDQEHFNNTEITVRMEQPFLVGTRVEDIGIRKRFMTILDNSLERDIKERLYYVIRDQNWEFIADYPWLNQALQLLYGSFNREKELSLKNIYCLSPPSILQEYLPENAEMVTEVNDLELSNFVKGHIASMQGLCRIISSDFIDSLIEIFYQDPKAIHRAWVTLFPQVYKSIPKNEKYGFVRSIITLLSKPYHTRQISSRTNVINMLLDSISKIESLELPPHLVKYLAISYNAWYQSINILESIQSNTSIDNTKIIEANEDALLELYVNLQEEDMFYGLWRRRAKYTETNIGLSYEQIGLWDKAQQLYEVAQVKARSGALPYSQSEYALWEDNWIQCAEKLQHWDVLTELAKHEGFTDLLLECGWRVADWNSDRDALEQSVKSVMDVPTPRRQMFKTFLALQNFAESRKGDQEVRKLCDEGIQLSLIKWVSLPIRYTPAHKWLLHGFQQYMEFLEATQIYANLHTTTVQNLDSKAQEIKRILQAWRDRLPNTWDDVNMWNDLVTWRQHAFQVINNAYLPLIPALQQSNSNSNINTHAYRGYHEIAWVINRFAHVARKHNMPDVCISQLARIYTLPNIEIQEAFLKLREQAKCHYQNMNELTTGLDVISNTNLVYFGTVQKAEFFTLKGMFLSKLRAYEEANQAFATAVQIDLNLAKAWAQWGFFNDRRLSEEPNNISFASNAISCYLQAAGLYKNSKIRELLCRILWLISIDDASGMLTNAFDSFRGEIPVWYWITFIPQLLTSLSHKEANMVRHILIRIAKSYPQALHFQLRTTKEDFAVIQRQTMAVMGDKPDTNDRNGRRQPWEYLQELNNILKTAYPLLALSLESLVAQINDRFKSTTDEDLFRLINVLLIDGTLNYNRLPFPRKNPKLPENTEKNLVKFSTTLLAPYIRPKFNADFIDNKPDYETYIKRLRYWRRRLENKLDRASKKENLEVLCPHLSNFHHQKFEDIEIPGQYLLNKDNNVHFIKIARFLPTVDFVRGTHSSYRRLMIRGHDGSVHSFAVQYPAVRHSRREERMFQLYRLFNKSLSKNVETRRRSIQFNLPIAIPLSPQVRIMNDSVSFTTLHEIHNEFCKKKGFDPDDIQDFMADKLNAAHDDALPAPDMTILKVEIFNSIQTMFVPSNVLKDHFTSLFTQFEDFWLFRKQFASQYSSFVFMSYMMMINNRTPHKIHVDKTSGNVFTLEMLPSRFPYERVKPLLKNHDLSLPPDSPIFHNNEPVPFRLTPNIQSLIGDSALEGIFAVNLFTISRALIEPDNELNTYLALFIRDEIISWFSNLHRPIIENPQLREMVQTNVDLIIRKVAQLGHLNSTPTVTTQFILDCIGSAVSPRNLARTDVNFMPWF

Binding result, binds:
B1
B2
B3

target: T1, Spt7; experiment: as above; details: both partners purified

Binding result, binds:
B4
B5
B6
B7
B8
